Patent publication US20260297187 (published 2026)
Like-named read-outs stand apart in the source and are kept apart here. One block for each binder: values may come before it.

Experiments:
[1] = biological target: T1, CEACAM1-his (human); assay: BLI
T1 chain: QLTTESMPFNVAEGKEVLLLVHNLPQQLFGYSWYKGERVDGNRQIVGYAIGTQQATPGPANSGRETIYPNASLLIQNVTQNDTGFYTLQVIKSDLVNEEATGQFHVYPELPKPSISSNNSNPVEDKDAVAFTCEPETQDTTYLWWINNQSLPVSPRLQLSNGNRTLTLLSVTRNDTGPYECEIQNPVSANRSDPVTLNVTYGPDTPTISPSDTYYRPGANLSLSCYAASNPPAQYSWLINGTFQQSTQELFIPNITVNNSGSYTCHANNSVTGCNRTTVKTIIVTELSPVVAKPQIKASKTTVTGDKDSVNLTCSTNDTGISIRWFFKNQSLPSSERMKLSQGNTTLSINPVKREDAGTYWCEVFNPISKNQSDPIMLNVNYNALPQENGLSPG

[2] = biological target: T1, CEACAM1-his; assay: BLI
[3] = biological target: T1, CEACAM1-his; assay: BLI
[4] = biological target: T1, CEACAM1-his; assay: BLI
[5] = biological target: CEACAM1 (cell surface) (human); assay: FACS, BxPC-3
Sequence of CEACAM1 (cell surface) (human) (chain, as listed by the source): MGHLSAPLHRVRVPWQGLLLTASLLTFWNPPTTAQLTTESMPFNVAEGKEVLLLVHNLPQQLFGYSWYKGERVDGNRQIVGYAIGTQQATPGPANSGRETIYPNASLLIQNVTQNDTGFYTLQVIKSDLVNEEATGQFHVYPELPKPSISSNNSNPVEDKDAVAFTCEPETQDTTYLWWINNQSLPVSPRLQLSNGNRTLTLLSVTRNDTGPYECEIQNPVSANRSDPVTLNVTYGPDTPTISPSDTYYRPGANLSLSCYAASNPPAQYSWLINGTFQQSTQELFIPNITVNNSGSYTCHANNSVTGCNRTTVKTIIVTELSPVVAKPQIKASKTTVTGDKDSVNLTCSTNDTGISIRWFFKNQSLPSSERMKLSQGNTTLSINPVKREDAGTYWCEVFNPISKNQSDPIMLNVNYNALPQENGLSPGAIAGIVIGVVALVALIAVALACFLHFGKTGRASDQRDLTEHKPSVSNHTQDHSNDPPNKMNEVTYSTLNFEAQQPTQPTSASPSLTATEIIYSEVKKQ

[6] = biological target: T1, CEACAM1-his; assay: BLI

Kd [3]: 0.362 nM
B3: h4D10.G4.H4(N56Q Y100F)L2(S28F S51M) (antibody, V domains shown)
VH: QVQLVQSGAEVKKPGASVKVSCKASGYTFSSYVIHWVRQAPGQGLEWMGYFNPYNQGTNYNENFKGRVTMTADTSTSTVYMELSSLRSEDTAVYYCARYFYASGSLYFDYWGQGTTVTVSS
VL: DIQMTQSPSTLSASVGDRVTITCSASSFVSYMHWYQQKPGKAPKPLIYEIMKLASGVPSRFSGSGSGTEFTLTISSLQPDDAATYYCQQWNYPLITFGGGTKVEIK

Kd [3]: 0.784 nM
B4: h4D10.G4.H4(N56Q Y100F)L2(S51M) (antibody, V domains shown)
VH: QVQLVQSGAEVKKPGASVKVSCKASGYTFSSYVIHWVRQAPGQGLEWMGYFNPYNQGTNYNENFKGRVTMTADTSTSTVYMELSSLRSEDTAVYYCARYFYASGSLYFDYWGQGTTVTVSS
VL: DIQMTQSPSTLSASVGDRVTITCSASSSVSYMHWYQQKPGKAPKPLIYEIMKLASGVPSRFSGSGSGTEFTLTISSLQPDDAATYYCQQWNYPLITFGGGTKVEIK

Kd [3]: 0.394 nM
B5: h4D10.G4.H4(H35M N56Q Y100F)L2 (antibody, V domains shown)
VH: QVQLVQSGAEVKKPGASVKVSCKASGYTFSSYVIMWVRQAPGQGLEWMGYFNPYNQGTNYNENFKGRVTMTADTSTSTVYMELSSLRSEDTAVYYCARYFYASGSLYFDYWGQGTTVTVSS
VL: DIQMTQSPSTLSASVGDRVTITCSASSSVSYMHWYQQKPGKAPKPLIYEISKLASGVPSRFSGSGSGTEFTLTISSLQPDDAATYYCQQWNYPLITFGGGTKVEIK

Kd [2]: 3.65 nM
B6: h4D10.G4.H4(N56Q Y100W)L2 (antibody, V domains shown)
VH: QVQLVQSGAEVKKPGASVKVSCKASGYTFSSYVIHWVRQAPGQGLEWMGYFNPYNQGTNYNENFKGRVTMTADTSTSTVYMELSSLRSEDTAVYYCARYWYASGSLYFDYWGQGTTVTVSS
VL: DIQMTQSPSTLSASVGDRVTITCSASSSVSYMHWYQQKPGKAPKPLIYEISKLASGVPSRFSGSGSGTEFTLTISSLQPDDAATYYCQQWNYPLITFGGGTKVEIK

Kd [2]: 3.14 nM
B9: h4D10.G4.H4(N56I Y100F)L2 (antibody, V domains shown)
VH: QVQLVQSGAEVKKPGASVKVSCKASGYTFSSYVIHWVRQAPGQGLEWMGYFNPYNIGTNYNENFKGRVTMTADTSTSTVYMELSSLRSEDTAVYYCARYFYASGSLYFDYWGQGTTVTVSS
VL: DIQMTQSPSTLSASVGDRVTITCSASSSVSYMHWYQQKPGKAPKPLIYEISKLASGVPSRFSGSGSGTEFTLTISSLQPDDAATYYCQQWNYPLITFGGGTKVEIK

Kd [3]: 0.956 nM
B10: h4D10.G4.H4(N56Q Y100F)L2(S28H) (antibody, V domains shown)
VH: QVQLVQSGAEVKKPGASVKVSCKASGYTFSSYVIHWVRQAPGQGLEWMGYFNPYNQGTNYNENFKGRVTMTADTSTSTVYMELSSLRSEDTAVYYCARYFYASGSLYFDYWGQGTTVTVSS
VL: DIQMTQSPSTLSASVGDRVTITCSASSHVSYMHWYQQKPGKAPKPLIYEISKLASGVPSRFSGSGSGTEFTLTISSLQPDDAATYYCQQWNYPLITFGGGTKVEIK

Kd [4]: 2.02 nM
Kd [2]: 3.31 nM
EC50 [5]: 0.0211 µg/mL
B13: h4D10.G4.H4(N56Q Y100F)L2 (antibody, V domains shown)
VH: QVQLVQSGAEVKKPGASVKVSCKASGYTFSSYVIHWVRQAPGQGLEWMGYFNPYNQGTNYNENFKGRVTMTADTSTSTVYMELSSLRSEDTAVYYCARYFYASGSLYFDYWGQGTTVTVSS
VL: DIQMTQSPSTLSASVGDRVTITCSASSSVSYMHWYQQKPGKAPKPLIYEISKLASGVPSRFSGSGSGTEFTLTISSLQPDDAATYYCQQWNYPLITFGGGTKVEIK

The next lines start with the binder.

B1: 4D10.G4 (antibody, V domains shown)
VH: EVQLQQSGPELVKPGASVKMSCKASGYTFSSYVIHWVRQKPGQGLEWIGYFNPYNNGTNYNENFKGKATLTSGKSSSTAYMELSSLTSEDSAVYYCARYYYASGSLYFDYWGQGTTLTVSS
VL: EIVLTQSPAIATASLGQKVTITCSASSSVSYMHWYQQKSGTSPKPWIYEISKLASGVPTRFSGSGSGTSYSLTISSMEAEDAAIYYCQQWNYPLITFGAGTKLELK
Kd [1]: 1.89 nM
Kd [2]: 1.82 nM

B2: 4H11 (antibody, V domains shown)
VH: QIQLVQSGPELKKPGETVKISCKASGYTLTDYGMNWVSQAPGKGLKWVGWINTYTGEPTYADDFKGRFAFSLDTSASTAYLQINNLKNEDTATYFCARKNIYGYFDVWGAGTTVTVSS
VL: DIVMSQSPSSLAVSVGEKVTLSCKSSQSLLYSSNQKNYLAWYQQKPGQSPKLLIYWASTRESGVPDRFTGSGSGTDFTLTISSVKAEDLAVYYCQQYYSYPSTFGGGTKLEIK
Kd [1]: 3.51 nM

B7: h4D10.G4.H4(N56Q Y100F)L2(S28F) (antibody, V domains shown)
VH: QVQLVQSGAEVKKPGASVKVSCKASGYTFSSYVIHWVRQAPGQGLEWMGYFNPYNQGTNYNENFKGRVTMTADTSTSTVYMELSSLRSEDTAVYYCARYFYASGSLYFDYWGQGTTVTVSS
VL: DIQMTQSPSTLSASVGDRVTITCSASSFVSYMHWYQQKPGKAPKPLIYEISKLASGVPSRFSGSGSGTEFTLTISSLQPDDAATYYCQQWNYPLITFGGGTKVEIK
Kd [3]: 0.3 nM

B8: h4D10.G4.H4(N56V Y100V)L2 (antibody, V domains shown)
VH: QVQLVQSGAEVKKPGASVKVSCKASGYTFSSYVIHWVRQAPGQGLEWMGYFNPYNVGTNYNENFKGRVTMTADTSTSTVYMELSSLRSEDTAVYYCARYVYASGSLYFDYWGQGTTVTVSS
VL: DIQMTQSPSTLSASVGDRVTITCSASSSVSYMHWYQQKPGKAPKPLIYEISKLASGVPSRFSGSGSGTEFTLTISSLQPDDAATYYCQQWNYPLITFGGGTKVEIK
Kd [2]: 4.67 nM

B11: h4D10.G4.H4(N56Q Y100F)L2(S28F S51M K52R) (antibody, V domains shown)
VH: QVQLVQSGAEVKKPGASVKVSCKASGYTFSSYVIHWVRQAPGQGLEWMGYFNPYNQGTNYNENFKGRVTMTADTSTSTVYMELSSLRSEDTAVYYCARYFYASGSLYFDYWGQGTTVTVSS
VL: DIQMTQSPSTLSASVGDRVTITCSASSFVSYMHWYQQKPGKAPKPLIYEIMRLASGVPSRFSGSGSGTEFTLTISSLQPDDAATYYCQQWNYPLITFGGGTKVEIK
Kd [3]: 0.151 nM

B12: h4D10.G4.H4(N56Q Y100F)L2(K52R) (antibody, V domains shown)
VH: QVQLVQSGAEVKKPGASVKVSCKASGYTFSSYVIHWVRQAPGQGLEWMGYFNPYNQGTNYNENFKGRVTMTADTSTSTVYMELSSLRSEDTAVYYCARYFYASGSLYFDYWGQGTTVTVSS
VL: DIQMTQSPSTLSASVGDRVTITCSASSSVSYMHWYQQKPGKAPKPLIYEISRLASGVPSRFSGSGSGTEFTLTISSLQPDDAATYYCQQWNYPLITFGGGTKVEIK
Kd [3]: 0.801 nM

B14: h4D10.G4.H4(N56Q Y100F)L2(S28F K52R) (antibody, V domains shown)
VH: QVQLVQSGAEVKKPGASVKVSCKASGYTFSSYVIHWVRQAPGQGLEWMGYFNPYNQGTNYNENFKGRVTMTADTSTSTVYMELSSLRSEDTAVYYCARYFYASGSLYFDYWGQGTTVTVSS
VL: DIQMTQSPSTLSASVGDRVTITCSASSFVSYMHWYQQKPGKAPKPLIYEISRLASGVPSRFSGSGSGTEFTLTISSLQPDDAATYYCQQWNYPLITFGGGTKVEIK
Kd [3]: 0.268 nM

B15: h9D12.G4.H0aL7 (antibody, V domains shown)
VH: EVQLVQSGAEVKKPGATVKISCKVSGFNIKDTYMHWVQQAPGKGLEWMGRIDLASGDSKYDPKFQGRVTITADTSTDTAYMELSSLRSEDTAVYYCARAHFGGGNWYFDVWGQGTTVTVSS
VL: DIQLTQSPSFLSASVGDRVTITCSASSSVSYMHWYQQKPGQAPKPWIYEISKLASGVPSRFSGSGSGTEYTLTISSMQSEDFAVYYCQQWNYPLTFGQGTKLEIK
Kd [4]: 3.39 nM
Kd [6]: 3.39 nM

B16: h9D12.G4.H4L7 (antibody, V domains shown)
VH: QVQLVQSGAEVKKPGASVKVSCKASGFNIKDTYMHWVRQAPGQGLEWIGRIDLASGDSKYDPKFQGRVTMTADTSTSTVYMELSSLRSEDTAVYYCARAHFGGGNWYFDVWGQGTTVTVSS
VL: DIQLTQSPSFLSASVGDRVTITCSASSSVSYMHWYQQKPGQAPKPWIYEISKLASGVPSRFSGSGSGTEYTLTISSMQSEDFAVYYCQQWNYPLTFGQGTKLEIK
Kd [4]: 2.46 nM
Kd [6]: 2.46 nM

B17: P23B6 (antibody, V domains shown)
VH: QVQLLQPGAEPVKPGTSVKLSCKASGYNFTSYWLNWVKLRPGQGLEWIGDIHPGRGSINYNEKFKSKAILTVDTSSRTAYIQLSSLASEDSALYYCARADGSWFVYWGQGTLVTVSA
VL: DIVLTQSPASLAVSLGQRATISCRASQSVSTSSYSYMHWYQQKPGQPPKLLIKYASNLESGVPARFSGSGSGTDFTLNIHPVEEEDTATYYCQHSWEIPWTFGGGTKLEIK
Kd [1]: 6.31 nM

B18: 2G12 (antibody, V domains shown)
VH: QIQLVQSGPELKKPGETVKISCKASGYSFTHHGMNWVKQAPGKDLKWMGWINTYTGEPTYADDFRGRFAFSLETSASTAYLQINNLKSEDTATYFCARKDYYISGNFDYWGQGTTLTVSS
VL: DIQMTQSPSSLSASLGERVSLTCRASQDIGSNLNWLQQEPDGTIKRLIYATSSLDSGVPKRFSGSRSGSDYSLTISSLESEDFVDYYCLQYASSPYTFGGGTKLEIK
Kd [1]: 2.19 nM

B19: 5D5.G4 (antibody, V domains shown)
VH: QIQLVQSGPELKKPGETVKISCKASGYTLTNYGMNWVKQAPGTDLKWMGWINTYTGEPTYADDFKGRFAFSLETSASTAYLQINNLKNEDTATYFCARKDYYVSGNFDYWGQGTTLTVSS
VL: DIQMTQSPSSLSASLGERVSLTCRASQDIGSNLNWLQQEPDGTIKRLIYATSSLDSGVPKRFSGSRSGSDYSLTISSLESEDFVDYYCLQYASSPYTFGGGTKLEIK
Kd [1]: 2.11 nM
